The term Kd denotes the equilibrium constant for the complex coming apart. One may read the koff as the first-order rate constant of dissociation. In general, kon refers to the rate constant with which the complex forms.

The assay addresses T1, human recombinant CD117 (c-Kit) from Sino Biological (Catalog No. 11996-H08H) (human, UniProt P10721 26-524).
T1 construct: also called soluble antigen
As to the kind of experiment: BLI Octet, IgG on anti-human Fc sensor, soluble CD117, 1:1 fit. The procedure:
IgG antibodies were immobilized on biosensors using suitable capture surfaces and binding of soluble antigen to immobilized antibodies was monitored by BLI (Octet). The resulting sensorgrams were analyzed using the supplied software (Fortebio). As antigen human recombinant CD117 (c-Kit) from Sino Biological was used (Catalog No. 11996-H08H, Lot #LC14SE0812). As a pre-experiment a series of experiments was performed to optimize assay parameters. The following parameters were selected:
In the main experiment kinetic assays were performed by first capturing IgG using anti-human Fc biosensors. The mAb capture biosensors were then submerged in wells containing different concentrations of antigen (association stage) followed by a dissociation step in running buffer. To allow for double reference correction, IgG-captured sensors were dipped into wells containing only buffer and blank sensors were also dipped into wells containing the antigen. This referencing provided a means of compensating for both the natural dissociation of the capture IgG and non-specific binding of the antigen to the sensor surface. Steps were performed at 25° C. at a constant shaking of 1000 rpm. New sensors were used for each sample. Dissociation rate constants (Kd) were calculated using the ForteBio Data Analysis software. All consumables used were those recommended by ForteBio.
All samples were diluted in freshly prepared running buffer. Antibody variants were immobilized onto the surface of a series of biosensors using the capture methods described. Antigen was passed over the surface to generate a binding response. Binding data for the IgG:antigen interactions were collected at 25° C. on the biosensors. A dilution series of the antigen was used in the association step, in order to fit results globally and get the best values for ka, kd, and KD. The response data for the binding of antigen to the surface immobilized IgG were fitted to a 1:1 binding model. HC0 LC0 refers to murine SR-1.
In general terms: In BLI a coated tip is dipped into the sample, and binding shifts an interference pattern.

T1 sequence (P10721 26-524 limits assumed): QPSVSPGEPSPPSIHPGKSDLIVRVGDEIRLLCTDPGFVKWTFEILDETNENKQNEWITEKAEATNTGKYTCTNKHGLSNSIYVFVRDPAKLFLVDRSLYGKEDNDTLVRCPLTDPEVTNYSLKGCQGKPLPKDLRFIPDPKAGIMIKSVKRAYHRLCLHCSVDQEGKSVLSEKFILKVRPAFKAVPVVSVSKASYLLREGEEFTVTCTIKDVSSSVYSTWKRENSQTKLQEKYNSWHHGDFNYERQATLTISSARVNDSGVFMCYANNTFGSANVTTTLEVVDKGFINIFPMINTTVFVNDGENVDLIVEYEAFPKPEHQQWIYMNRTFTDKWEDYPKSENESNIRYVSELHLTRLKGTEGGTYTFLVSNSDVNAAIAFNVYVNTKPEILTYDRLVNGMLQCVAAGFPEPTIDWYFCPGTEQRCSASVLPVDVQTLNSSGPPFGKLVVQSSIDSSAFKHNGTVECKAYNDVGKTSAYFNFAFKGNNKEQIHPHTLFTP

B1: Dom (antibody, V domains shown)
VH: QVQLVQSGAEVRKPGASVKLSCKASGYTFTSYNMHWVRQAPGQGLEWMGVIYSGNGDTSYNQKFKGRVTLTRDTSTSTVYMELSSLRSEDTAVYYCARERDTRFGNWGQGTLVTVSA
VL: EIVLTQSPSSLSASVGDRVTITCRASESVDIYGNSFMHWYQQKPGKAPKLLIYLASNLESGVPSRFSGSGSGTDFTLTISSLQPEDFATYYCQQNNEDPYTFGQGTKLEIK
notes: IgG; also called VH3/VL1; HC3 LC1
Turning to B1, the dissociation constant (Kd) was determined as 1.96 nM, the koff amounted to 0.000971 s⁻¹ and the kon was 495000 M⁻¹ s⁻¹.

B2: HC2 LC2 (antibody, V domains shown)
VH: QVQLVESGAEVKKPGASVKLSCKASGYTFTSYNMHWVRQAPGQRLEWMGVIYSGNGDTSYNQKFKGRVTITVDKSASTAYMELSSLRSEDTAVYYCARERDTRFGNWGQGTLVTVSA
VL: DIVMTQSPSTLSASVGDRVTITCRASESVDIYGNSFMHWYQQKPGKAPKLLIYLASNLESGVPSRFSGSGSGTEFTLTISSLQPDDFATYYCQQNNEDPYTFGQGTKLEIK
notes: IgG; also called VH2/VL2
As to B2, the dissociation constant Kd amounted to 10.8 nM, the off-rate constant (koff) was 0.00483 s⁻¹ and the kon is 449000 M⁻¹ s⁻¹.

B3: HC2 LC3 (antibody, V domains shown)
VH: QVQLVESGAEVKKPGASVKLSCKASGYTFTSYNMHWVRQAPGQRLEWMGVIYSGNGDTSYNQKFKGRVTITVDKSASTAYMELSSLRSEDTAVYYCARERDTRFGNWGQGTLVTVSA
VL: DIVMTQSPSTLSASVGDRVTITCRASESVDIYGSSFMHWYQQKPGQPPKLLIYLASNLESGVPSRFSGSGSGTEFTLTISSLEADDVATYYCQQNNEDPYTFGGGTKLEIK
notes: IgG; also called VH2/VL3
For B3, the dissociation constant (Kd) came to 8.03 nM, the off-rate constant (koff) worked out at 0.00458 s⁻¹ and the kon was 571000 M⁻¹ s⁻¹.

B4: HC5 LC2 (antibody, V domains shown)
VH: EVQLVQSGAEVKKPGESLKISCKGSGYTFTSYNMHWVRQMPGKGLEWMGVIYSGNADTSYNQKFKGQVTISADKSISTAYLQWSSLKASDTAMYYCARERDTRFGNWGQGTLVTVSA
VL: DIVMTQSPSTLSASVGDRVTITCRASESVDIYGNSFMHWYQQKPGKAPKLLIYLASNLESGVPSRFSGSGSGTEFTLTISSLQPDDFATYYCQQNNEDPYTFGQGTKLEIK
notes: IgG; also called VH5/VL2
Take B4: the dissociation constant Kd stood at 3.61 nM, the koff amounted to 0.0017 s⁻¹ and the kon was 472000 M⁻¹ s⁻¹.

B5: HC3 LC3 (antibody, V domains shown)
VH: QVQLVQSGAEVRKPGASVKLSCKASGYTFTSYNMHWVRQAPGQGLEWMGVIYSGNGDTSYNQKFKGRVTLTRDTSTSTVYMELSSLRSEDTAVYYCARERDTRFGNWGQGTLVTVSA
VL: DIVMTQSPSTLSASVGDRVTITCRASESVDIYGSSFMHWYQQKPGQPPKLLIYLASNLESGVPSRFSGSGSGTEFTLTISSLEADDVATYYCQQNNEDPYTFGGGTKLEIK
notes: IgG; also called VH3/VL3
For the molecule B5, the Kd turned out to be 3.28 nM, the koff was found to be 0.00216 s⁻¹ and the association rate constant (kon) is 658000 M⁻¹ s⁻¹.

B6: HC3 LC2 (antibody, V domains shown)
VH: QVQLVQSGAEVRKPGASVKLSCKASGYTFTSYNMHWVRQAPGQGLEWMGVIYSGNGDTSYNQKFKGRVTLTRDTSTSTVYMELSSLRSEDTAVYYCARERDTRFGNWGQGTLVTVSA
VL: DIVMTQSPSTLSASVGDRVTITCRASESVDIYGNSFMHWYQQKPGKAPKLLIYLASNLESGVPSRFSGSGSGTEFTLTISSLQPDDFATYYCQQNNEDPYTFGQGTKLEIK
notes: IgG; also called VH3/VL2
For B6, the dissociation constant (Kd) amounted to 3.09 nM, the koff came to 0.00178 s⁻¹ and the kon is 577000 M⁻¹ s⁻¹.

B7: HC3 LC5 (antibody, V domains shown)
VH: QVQLVQSGAEVRKPGASVKLSCKASGYTFTSYNMHWVRQAPGQGLEWMGVIYSGNGDTSYNQKFKGRVTLTRDTSTSTVYMELSSLRSEDTAVYYCARERDTRFGNWGQGTLVTVSA
VL: DIQMTQSPSSLSASVGDRVTITCRASESVDIYGNAFMHWYQQKPGKAPKLLIYLASNLESGVPSRFSGSGSGTDFTLTISSLQPEDFATYYCQQANEEPYTFGGGTKLEIK
notes: IgG; also called VH3/VL5
Turning to B7, the Kd came out at 26.2 nM, the off-rate constant (koff) came out at 0.0187 s⁻¹ and the kon was determined as 715000 M⁻¹ s⁻¹.

B8: HC2 LC5 (antibody, V domains shown)
VH: QVQLVESGAEVKKPGASVKLSCKASGYTFTSYNMHWVRQAPGQRLEWMGVIYSGNGDTSYNQKFKGRVTITVDKSASTAYMELSSLRSEDTAVYYCARERDTRFGNWGQGTLVTVSA
VL: DIQMTQSPSSLSASVGDRVTITCRASESVDIYGNAFMHWYQQKPGKAPKLLIYLASNLESGVPSRFSGSGSGTDFTLTISSLQPEDFATYYCQQANEEPYTFGGGTKLEIK
notes: IgG; also called VH2/VL5
Consider B8, for which the Kd is 33.8 nM, the dissociation rate constant (koff) stood at 0.0214 s⁻¹ and the on-rate constant (kon) was 632000 M⁻¹ s⁻¹.

B9: HC5 LC3 (antibody, V domains shown)
VH: EVQLVQSGAEVKKPGESLKISCKGSGYTFTSYNMHWVRQMPGKGLEWMGVIYSGNADTSYNQKFKGQVTISADKSISTAYLQWSSLKASDTAMYYCARERDTRFGNWGQGTLVTVSA
VL: DIVMTQSPSTLSASVGDRVTITCRASESVDIYGSSFMHWYQQKPGQPPKLLIYLASNLESGVPSRFSGSGSGTEFTLTISSLEADDVATYYCQQNNEDPYTFGGGTKLEIK
notes: IgG; also called VH5/VL3
As for B9, the Kd was found to be 3.67 nM, the koff turned out to be 0.00216 s⁻¹ and the on-rate (kon) was determined as 589000 M⁻¹ s⁻¹.

B10: Signalkuppe (antibody, V domains shown)
VH: QVQLVQSGAEVKKPGASVKVSCKASGYTFTSYNMHWVRQAPGQGLEWMGVIYSGNGDTSYNQKFKGRVTMTTDTSTSTAYMELRSLTSDDTAVYYCARERDTRFGNWGQGTLVTVSA
VL: DIVMTQSPSTLSASVGDRVTITCRASESVDIYGSSFMHWYQQKPGQPPKLLIYLASNLESGVPSRFSGSGSGTEFTLTISSLEADDVATYYCQQNNEDPYTFGGGTKLEIK
notes: IgG; also called VH1/VL3; HC1 LC3
Consider B10, for which the equilibrium dissociation constant (Kd) was 1.09 nM, the koff is 0.000727 s⁻¹ and the kon stood at 670000 M⁻¹ s⁻¹.

B11: HC1 LC5 (antibody, V domains shown)
VH: QVQLVQSGAEVKKPGASVKVSCKASGYTFTSYNMHWVRQAPGQGLEWMGVIYSGNGDTSYNQKFKGRVTMTTDTSTSTAYMELRSLTSDDTAVYYCARERDTRFGNWGQGTLVTVSA
VL: DIQMTQSPSSLSASVGDRVTITCRASESVDIYGNAFMHWYQQKPGKAPKLLIYLASNLESGVPSRFSGSGSGTDFTLTISSLQPEDFATYYCQQANEEPYTFGGGTKLEIK
notes: IgG; also called VH1/VL5
In the case of B11, the dissociation constant Kd came to 8.79 nM, the koff is 0.00552 s⁻¹ and the on-rate (kon) came to 628000 M⁻¹ s⁻¹.

B12: Zumstein (antibody, V domains shown)
VH: QVQLVQSGAEVKKPGASVKVSCKASGYTFTSYNMHWVRQAPGQGLEWMGVIYSGNGDTSYNQKFKGRVTMTTDTSTSTAYMELRSLTSDDTAVYYCARERDTRFGNWGQGTLVTVSA
VL: DIVMTQSPSTLSASVGDRVTITCRASESVDIYGNSFMHWYQQKPGKAPKLLIYLASNLESGVPSRFSGSGSGTEFTLTISSLQPDDFATYYCQQNNEDPYTFGQGTKLEIK
notes: IgG; also called VH1/VL2; HC1 LC2
For B12, the Kd was 1.16 nM, the koff stood at 0.000668 s⁻¹ and the kon came to 576000 M⁻¹ s⁻¹.

B13: HC2 LC1 (antibody, V domains shown)
VH: QVQLVESGAEVKKPGASVKLSCKASGYTFTSYNMHWVRQAPGQRLEWMGVIYSGNGDTSYNQKFKGRVTITVDKSASTAYMELSSLRSEDTAVYYCARERDTRFGNWGQGTLVTVSA
VL: EIVLTQSPSSLSASVGDRVTITCRASESVDIYGNSFMHWYQQKPGKAPKLLIYLASNLESGVPSRFSGSGSGTDFTLTISSLQPEDFATYYCQQNNEDPYTFGQGTKLEIK
notes: IgG; also called VH2/VL1
B13: the Kd was found to be 5.16 nM, the koff is 0.00206 s⁻¹ and the kon turned out to be 399000 M⁻¹ s⁻¹.
